Laboratory results from the supplement of paper PMC9732359.
± gives the uncertainty stated by the source.

Assay: protein stability index of a GFP-peptide fusion (yeast GPS) (PSI 1-4); higher = more stable; sorted into four equal gates, so the index is relative within each strain
Procedure, shortened: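 Sequencing reads from sorted gates were used to score each peptide. The library consisted of tiled 17-residue yeast protein peptides fused downstream of GFP on a Cherry-expressing plasmid, pooled and carried in yeast. Mid-log cultures in leucine-free medium were split into four equal gates by GFP/Cherry ratio, and each gate's plasmids were PCR-amplified and Illumina-sequenced. The protein stability index adds up, over all gates, the read frequency multiplied by the gate number.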

## AAASESDVAKQLASFGY [RPL16B]
doa10∆
  protein stability index: 2.67 ± 0.032
pdr5∆
  protein stability index: 2.62 ± 0.028
san1∆
  protein stability index: 2.28 ± 0.037
ubr1∆
  protein stability index: 2.356 ± 0.019

## AAATFPIAQPATDVEAR [RPL13A]
doa10∆
  protein stability index: 2.65 ± 0.05
pdr5∆
  protein stability index: 2.38 ± 0.042
san1∆
  protein stability index: 2.71 ± 0.066
ubr1∆
  protein stability index: 2.29 ± 0.04

## AAEGLCKLFLADVFTDD [YCG1]
doa10∆
  protein stability index: 3.25 ± 0.061
pdr5∆
  protein stability index: 3.26 ± 0.061
san1∆
  protein stability index: 3.14 ± 0.043
ubr1∆
  protein stability index: 3.14 ± 0.039

## AAGTSQARTATLKYICA [RPC10]
doa10∆
  protein stability index: 2.16 ± 0.15
pdr5∆
  protein stability index: 2.07 ± 0.11
san1∆
  protein stability index: 1.72 ± 0.11
ubr1∆
  protein stability index: 2.24 ± 0.094

## AAKKRRPAAKGKNLSFK [RRP6]
doa10∆
  protein stability index: 2.35 ± 0.24
pdr5∆
  protein stability index: 2.77 ± 0.14
san1∆
  protein stability index: 2.35 ± 0.2
ubr1∆
  protein stability index: 2.72 ± 0.1

## AALANANNNINSASSAP [SWI1]
doa10∆
  protein stability index: 2.55 ± 0.088
pdr5∆
  protein stability index: 1.91 ± 0.068
san1∆
  protein stability index: 2.88 ± 0.13
ubr1∆
  protein stability index: 2.55 ± 0.12

## AALERLKIFEGIPPPYD [RPL16B]
doa10∆
  protein stability index: 1.62 ± 0.12
pdr5∆
  protein stability index: 2.52 ± 0.089
san1∆
  protein stability index: 1.34 ± 0.23
ubr1∆
  protein stability index: 1.27 ± 0.064

## AALGMGLCMLGTGKPEA [RPN2]
doa10∆
  protein stability index: 3.46 ± 0.13
pdr5∆
  protein stability index: 3.32 ± 0.094
san1∆
  protein stability index: 3.44 ± 0.066
ubr1∆
  protein stability index: 3.36 ± 0.088

## AALYKEVYNVIASDGSY [RPO21]
doa10∆
  protein stability index: 2.34 ± 0.089
pdr5∆
  protein stability index: 1.77 ± 0.1
san1∆
  protein stability index: 2.22 ± 0.15
ubr1∆
  protein stability index: 3.06 ± 0.12

## AANEGTAVSFVSAAEDE [PRP28]
doa10∆
  protein stability index: 2.96 ± 0.24
pdr5∆
  protein stability index: 3.46 ± 0.23
san1∆
  protein stability index: 3.01 ± 0.19

## AATNETFENINSLFYLK [IRR1]
doa10∆
  protein stability index: 2.43 ± 0.25
pdr5∆
  protein stability index: 2.37 ± 0.21
san1∆
  protein stability index: 2.71 ± 0.17

## AATVHTATSSSIILSDK [SSN2]
doa10∆
  protein stability index: 2.19 ± 0.043
pdr5∆
  protein stability index: 2.29 ± 0.032
san1∆
  protein stability index: 2.02 ± 0.053
ubr1∆
  protein stability index: 2.39 ± 0.041

## AAVLSNLQGDLQAIQEK [ITC1]
san1∆
  protein stability index: 3.31 ± 0.16

## ACEPTAEKFVPIDIFQI [SIR3]
doa10∆
  protein stability index: 2.72 ± 0.092
pdr5∆
  protein stability index: 2.71 ± 0.059
san1∆
  protein stability index: 2.66 ± 0.07
ubr1∆
  protein stability index: 2.98 ± 0.048

## ACGAFININEFALPAGS [CDC53]
doa10∆
  protein stability index: 2.36 ± 0.096
pdr5∆
  protein stability index: 2.53 ± 0.091
san1∆
  protein stability index: 1.99 ± 0.12
ubr1∆
  protein stability index: 1.87 ± 0.074

## ACVPLLPPPEDVAFLKT [RPN1]
doa10∆
  protein stability index: 2.65 ± 0.053
pdr5∆
  protein stability index: 2.4 ± 0.053
san1∆
  protein stability index: 2.79 ± 0.043
ubr1∆
  protein stability index: 2.65 ± 0.048

## ADLDSLIIRNDSLSGAV [RPT3]
doa10∆
  protein stability index: 3.12 ± 0.077
pdr5∆
  protein stability index: 3.06 ± 0.058
san1∆
  protein stability index: 2.82 ± 0.049
ubr1∆
  protein stability index: 3 ± 0.049

## ADLESFANNHFLNSNAV [COR1]
doa10∆
  protein stability index: 2.63 ± 0.11
pdr5∆
  protein stability index: 2.87 ± 0.074
san1∆
  protein stability index: 2.99 ± 0.056
ubr1∆
  protein stability index: 2.71 ± 0.082

## ADLQGSEDHSFRKIKLR [RPS1A]
doa10∆
  protein stability index: 3.17 ± 0.051
pdr5∆
  protein stability index: 3.13 ± 0.061
san1∆
  protein stability index: 3.06 ± 0.047
ubr1∆
  protein stability index: 3.15 ± 0.048

## ADPVALYLGLKRGEVVK [RPB5]
doa10∆
  protein stability index: 1.67 ± 0.24
pdr5∆
  protein stability index: 1.6 ± 0.15
san1∆
  protein stability index: 1.32 ± 0.14
ubr1∆
  protein stability index: 1.37 ± 0.13

## ADVLYKTAFKPHELTES [QCR2]
doa10∆
  protein stability index: 3.11 ± 0.062
pdr5∆
  protein stability index: 3.17 ± 0.059
san1∆
  protein stability index: 2.98 ± 0.051
ubr1∆
  protein stability index: 3.15 ± 0.045

## ADVSKLMYSITFHHHGR [SRB2]
doa10∆
  protein stability index: 2.82 ± 0.053
pdr5∆
  protein stability index: 3.01 ± 0.056
san1∆
  protein stability index: 2.79 ± 0.049
ubr1∆
  protein stability index: 2.98 ± 0.04

## ADWDPESMAYTAFQTQR [YML031W/NDC1]
doa10∆
  protein stability index: 2.89 ± 0.14
pdr5∆
  protein stability index: 3.34 ± 0.11
san1∆
  protein stability index: 3.24 ± 0.17
ubr1∆
  protein stability index: 3.36 ± 0.12

## ADYNGALLRVTKSKNKT [POP4]
doa10∆
  protein stability index: 2.61 ± 0.066
pdr5∆
  protein stability index: 2.14 ± 0.058
san1∆
  protein stability index: 2.42 ± 0.077
ubr1∆
  protein stability index: 2.36 ± 0.053

## AEASGEAADEADEADEE [RPS9A]
doa10∆
  protein stability index: 3.35 ± 0.23
pdr5∆
  protein stability index: 3.03 ± 0.28
san1∆
  protein stability index: 3.01 ± 0.15
ubr1∆
  protein stability index: 3.45 ± 0.12

## AEDQILANFVAKGFYHT [SRB8]
doa10∆
  protein stability index: 2.91 ± 0.092
pdr5∆
  protein stability index: 3.25 ± 0.055
san1∆
  protein stability index: 3.25 ± 0.12
ubr1∆
  protein stability index: 3.05 ± 0.065

## AEGQTNSISDFLGEQVN [RPN1]
doa10∆
  protein stability index: 3.06 ± 0.079
pdr5∆
  protein stability index: 2.89 ± 0.067
san1∆
  protein stability index: 2.98 ± 0.077
ubr1∆
  protein stability index: 3.12 ± 0.059
